Drawing on the NTF2 design screens of Basanta et al. (2020), this text covers protease stability score for 34 sequences.

The data set is described as follows: protease stability score; higher = more stable; yeast display proteolysis, trypsin and chymotrypsin.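 Also: log10 excess protease needed over predicted unfolded state with 0 meaning unfolded.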
The sequence “DEDQATEVAELVKSNDWENLRRNIDPNARMHIGDRTLHGREEIAEVFRRIVEQADHQRLHHLEVEGDTIVIRMTVNINGKEVDFRMKIQFHNGKIKEVRVDFTDPKERKVFDKAAR” returned a protease stability score of 1.28.

As for “DEDEKRELARRFAKNFLHGDHDNIRDLADKDVDAQVGDQTFTGTEQLMRVVKEVRDRVDHFNLTSVDVHNGQADIHARAKVNGRDYRVKIRIKIHNGRILHVQFNRR”, the protease stability score amounted to 1.18.

Turning to “DEENVKQVERQFKQRDEGNEERVVDQADENASINIGDKRYHGMTDAAKKLVTRLKEIRFERRVVSVTMHNGKFDANYEQTQNTNGNPRTFRYKLVIHMKNGRVKSAHIQEDG”, the protease stability score came to 0.062. “DEELQKMVEQFFRNEQNGNRDQLKRLADPNVNFQYGDKTIHGMDTFLQRQRERHEDSRQDFKSIDMKVQGDKVRVTAVLEQETDGQPERFRREMTVEAHNGKIKSVNVQHSQ”: the protease stability score is -0.082. Sequence “DDSMVRLAHTVIDNWRQGDEKKAMELLDPNARAEIGDKTIHGREQMSDEIRKQRTEQRLDIKVKRLEDRPGHVVIDAENTNSKNGRPRTNRVQIHLTAQGDKLKRLRIQNDS” came in with a protease stability score of -0.05. As for “DEEAQEVYHRLRKVLENNNPKEFEENVDKDVRFNIGDKRIHGREQASKDWKSRMEEQHRKITRVENQSHGNEFEVRAKVNYDHNGQPRQQDLSAHVVAENGKLKMATYEVRK”, the protease stability score was found to be 0.018. As for “DEEQVTKAKNLLENWKTNNPEEVKKLADPNARAQIGDQVIHGMDKYVTFLHKQRSKMRFELHIRSMTADNGRVKMTFDHVVDHNGRPDKNDARMSVQFENGKIKELVIQKDK”, the figure is -0.295; as for “DENVVKEVEKLLEWIQSGNEQHIQEMMDKHARAQVGDQKVKGRKQVSTQWRRLAEDIDIHARVKDMKNDGNRAILEIHQVRHHNGDPDEFHANQIVTMHGDRIKHLELQNTK”, -0.283; as for “DEDNMHRLKEFLDNLNQGDEERLVELADEDVKLVYGEKRYHGREELTKTLETQRDQMRVDYKVKSMSVSNGRVHADIEASNTKNGKPKRFKVRVHAEFHNGRLQVYNQQEDK”, 0.42. The value for “DTEELQRLLTLVETNDFETLAKQADENARADVGDHKITGREDITRWAKQLSDRIDHVEVRSLDIQGDKAVAVLQFHVNGRTMVFRVHISAHNGKVKHFQVKVRDENARKQLKRVVD” was 0.147; that for “DDRIKELADRFMNALQTNDPDKINNLVDPNAKITVGDKSVRGDEQINRTMDQRKRELRQDYDVRSVEVHGNTAIIDVHVTFEHNGEPHKEKQTIIIHVKNGRAVDIKITRHS” was -0.326. “DERDAETWTRMLEAVEYNNPEEVRKNADPNANFVYGNKTITGREQYAEEMKKEMDDMRKHVKIDDYHVEGDNIHVSAKFEWEVNGTPVRDTVSVQFVAENGKVRSVQYRFDPDSERKEDQ” came in with a protease stability score of -0.641. As for “DDRTKMQELLDKLREAAEDGDRRKVHQLFDENARFEIGDTEFHGMTSAAKRLAEEWKRHDHVQFSVREIRVEPGRFVVHMQERNSHNGKSDSKNVVMTVTKSNGQIRATKVKVR”, the figure is 0.387.

“DTEEREKVMEIMRTGDPDKLHKLMDKNVKVVVGDKRYHGREMVEELVQKLKSQIDHIEVKDYTIQGDNLILNAVINVDGRSVELVIFVRVHNGRIKHMNFNVTDEEEQKKLDENLS” displayed a protease stability score of 1.34. “DEEDEQKIAKDFVRALERGDEDRVMELADPNVRIVIGDKRYEGREELKKLVRTFKKRADHAEVHSIDIRNGTVIVDYVIHHNGRNSQQYLYVSFNNGRIKSMRVQDG” had a protease stability score of 2.07. The value for “DSENVKVVREFIKAVERNDHQKLRDLVDPNATAQIGDKEYTGMDDIVTRIIETIRQLRFKIKLHHVDNHNGVVNVKAVFTFEHNGKPDKREVDIRVEITNGKVTNFQYQEHK” was 2.08; that for “DEDHVQDKAEDLARAIQRGDEDRMNELFDENVKVQVGDKTIHGRENVVDHMREQNEQADRIEIKSITATGDKIRIEMVVVHNGQNTHVVFEVKWENGKIKHMTQKTE” was 1.94; that for “DDDQQRQAEKIVRAIRHGNEQEVDELVDENVRIEYGDKVVHGRSQLRKKMQDEKRHIRQDIKVDTVKEDGDKALIHFKNNFTVNGTPTTNTYSYEVEFTNGRAKELRIRVDPQEVRKQEK” was -0.118.

In the case of “DEEDSKQMKQVLEAIRRGDEDHVRQQFDPNARIRVGDKEYHGMEEYASDLRSKRSKLDHKINLKTMSASNGRIDFVVQVQFTIDGQPVTDEVRATAVVHNGKIVSLSNEVDEERISEVEK”, the protease stability score was -0.705. The sequence “DQEHYEKIAKHMSDVLRTGNPDDMLRMIDPNARLEVGDKRWNGRHKIKKFLETFVKSADHVKVRHVEVSGNDITLDVVAHVNGRSVKFNVHANVHNGRIKEVKFDPRAWRDLQT” displayed a protease stability score of 0.505.

In turn, “DEDIRRHVKEFIEALRTGNEDQLRTLADKNVRFEYGDKEIHGRETYAKHVKKLKEESSIEIKDYKVTAQGNTVSAKIRQVVNHNGKPQHHVVILQAVFHNGKLKEMRTKDDG” came in with a protease stability score of -0.26. As to “EDEMRKLAHKVMTAHQTGDPDRIARLMDPNVQVKVGDKTIHGKHQLKRKLTKDLKEMRVHIKSVKFSVQGDKVEVRANLVSRHNGQPHESTVDVRITARGDKLKHLNNQETQ”, the protease stability score is -0.263. As for “DHDLNQQAQQWVRNFNNGDEDKLQDYADPNVRFQIGDEQVHGREEYKSRVKKKRKHARFRIRVREIDAQGEHVHVKADIIQNINGRPMDDHVIFHFEVRNGKLKSLKLRVDPEKQRELEK”, the figure is 0.417; as for “DEDDVRRVHEMIRAEETNNEHQVKDLMDENARMVVGDQEITGMDHILKFIRETNKEIDIELRLRDVKVSNGNVHVTARVRFTVNGKPVDRSAKMEVQVENGRIQDVQKRFPTEWKRERHK”, -0.03. On to “DEDALDQVEEMMRNNNEQEIADRADKDVEVEYGDHELHGREDMQDWAEKWQQQVDHLEVKSVHKKGDHFKMKLRAVFNGQEYTFVMVVEVHNGKIKNIKYDATSKEVKEIQKEVLK”, for which the protease stability score is -0.163. The sequence “DDQAKRIVDEILTNMRTGDEDKLKTLIDPNARARVGEKEVHGWDDALKEIADKLRDIRIQIDRFSVKVTGDKVKIDFTAQNEHNGQPSTKKYERNYKIKNGRVKHFEDVSTQ” gave a protease stability score of -0.192. Take “DERKRATEIAEQIQTILRTGNPKDMRRMADEDVKVDVGDQRIHGRDQLATTLHKLRKRADHIDIKIVSVNAQGDKFVVRQRVRETVNGRVRTFEFVMVLRVHNGREVVKSRHQS”: the protease stability score was found to be 0.225. As for “DSDKIDNVVKTIMHDLRKGNPERVMKNADKDVKIVVGDKRYHGRETLETLMKEMVDQADHIQFHSVNIRGEKVVVVAVLQHNGVNVDVQFNMEIDNGRATKVELKVRNPEQQKKFDS”, the figure is 0.583; as for “DEDREAKKNLENMQKVLEKGDPDKMSELVDEDVRFVVGDKTFQGREDVRRRMETNVKRVDHIEVQIKHYEVKNGRARADAVFRVEVNGKETTRKFDVQVKVENGRFRVEQIRYK”, 0.265; as for “DEQDEVKTLLDEIRKALETNDRERLRELVDKDAHFEYGDKKYQGSEHAARQMVEEQKNIDSQSVQLRDVQIHNGQANVDVVIEYTHNGRKRTFDAKFRFKVENGRVKLVENVQS”, 0.895. “DEEKRKHAREILKVEETGNPDDLKELFDPNAKFEYGDKTFHGMTDFRQHHERVRKEMHIDIKSVSVSVHNGQAQVDVQYEHEHNGRPDSKRANRTFDIRNGRVQSATQKDDQ” displayed a protease stability score of -0.537. As for “DEEEIATENAQRFINAVNKNNPDEFVKNMDEDVRIEYGDKVVHGRSQAKHLANEMVDKVDHLTARITDFKVHNGEVDVNVRITFRHNGRNDTHHVRLHLQVHNGRLHIQSMKWS”, the figure is -0.412. The sequence “DEDEQRTLVEQLARAIQQGDEDQVRKLADPNAKARYGDHEIHGHDQLAHVVRQLKDQVDSIEVESFSVRNGRAELDIRFDVNGRDVKITINAEIRNGRMKHVEFQYTNEDQEKTANR” gave a protease stability score of 0.948. For “DSREEAKRFFTKMVEIFKTGDEDEAHEMADKNARVHVGDKTVRGREQYTRKMSKEVKQVDHAEYRIQDVEVQGEHIRITFVRRIDTNGRTNEQHLVMEAEKHNGRIYIKQIHES”, the protease stability score is -0.159.
